Assay results: article doi:10.1101/503680 (bioRxiv, 2018)

Molecular target: His6-KIF3A-motor (mouse, UniProt P28741 1-350)
Test: SPR

His6-KIF3A-motor, sequence (P28741 1-350): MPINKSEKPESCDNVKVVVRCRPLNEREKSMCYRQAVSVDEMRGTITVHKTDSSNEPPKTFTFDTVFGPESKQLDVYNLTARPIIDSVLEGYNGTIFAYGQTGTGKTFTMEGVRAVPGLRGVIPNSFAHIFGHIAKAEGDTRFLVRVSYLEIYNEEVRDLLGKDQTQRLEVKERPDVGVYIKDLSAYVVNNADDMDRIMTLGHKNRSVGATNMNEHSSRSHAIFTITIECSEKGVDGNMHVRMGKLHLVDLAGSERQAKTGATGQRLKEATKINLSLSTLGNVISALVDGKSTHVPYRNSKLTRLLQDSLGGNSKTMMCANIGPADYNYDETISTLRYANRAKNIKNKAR

B1: GST-KIF3A-S689A-Tail (domain or fragment, mouse, UniProt P28741 598-701, looked up)
chain: IPQDYQEMIENYVHWNEDIGEWQLKCVAYTGNNMRKQTPVPDKKERDPFEVDLSHVYLAYTEESLRQSLMKLERPRTSKGKARPKMGRRKRAAKPETVIDSLLQ
With B1 the Kd was 48.4 nM.
